{"source": "paper PMC12239564", "key": {"[1]": {"target": "P. fluorescens RloA (Pfl01_1762), residues 20-178 (P. fluorescens)", "assay": "SEC-MALS; 5 mg/mL (289 µM) protein on Superdex 200 Increase 10/300 in 25 mM Tris-HCl pH 7.5, 300 mM NaCl, 0.7 mL/min"}, "[2]": {"target": "P. aeruginosa RloA2 (PA0462), residues 18-169 (P. aeruginosa)", "assay": "SEC-MALS; 5 mg/mL (289 µM) protein on Superdex 200 Increase 10/300 in 25 mM Tris-HCl pH 7.5, 300 mM NaCl, 0.7 mL/min"}}}
{"substance": "P. fluorescens RloA (Pfl01_1762), residues 20-178 (enzyme)", "values": [{"measurement": "stoichiometry N", "setting": "[1]", "value": 2}]}
{"substance": "P. aeruginosa RloA2 (PA0462), residues 18-169 (enzyme)", "values": [{"measurement": "stoichiometry N", "setting": "[2]", "value": 2}]}
